Reference: patent US20140241987A1

How the values were obtained:
[1] = molecular target: α-synuclein fibrils (human), P37840; assay: inhibition ELISA, fibrils against monomers; details: remark: other sources report otherwise
[2] = molecular target: α-synuclein fibrils (human), P37840; assay: SPR, BIAcore X100, fibrils immobilised on CM5, mAb injected; details: remark: other sources report otherwise

Fold Affinity to Fibrils [1] | Kd [2] | koff [2] | kon [2] | Binder
16600 fold | 0.127 nM | 0.00156 s⁻¹ | 1.23e+07 M⁻¹ s⁻¹ | Syn-F1 (antibody) chain 1: DVQLVESGGDLVQPGGSRKLSCAASGFTFSSFGMHWVRQAPEKGLEWVAYINSGSSTIYYADTVKGRFTISRDNPKNTLFLQMTSLRSEDTAMYYCARGNNPGTGYYYSMDYWGQGTSVTVSS chain 2: not shown
3140 fold | 2.69 nM | 0.00338 s⁻¹ | 1.26e+06 M⁻¹ s⁻¹ | Syn-F2 (antibody) chain 1: DVQLVESGGGLVQPGGSRKLSCAASGFTFSSFGMHWVRQAPEKGLEWVAYISSGSSTIYYADTVKGRFTISRDNPKNTLFLQMTSLRSEDTAMYYCARGNNPGTGYYYAMDYWGQGTSVTVSS chain 2: not shown
